Columns and labels:
[1] = biological target: recombinant protein LmPDI-(His)6 produced in E. coli (Leishmania major); test: cell-based or functional assay
[2] = biological target: T1, scrambled RNase A (reduced and denatured ribonuclease A), P61823
T1 chain: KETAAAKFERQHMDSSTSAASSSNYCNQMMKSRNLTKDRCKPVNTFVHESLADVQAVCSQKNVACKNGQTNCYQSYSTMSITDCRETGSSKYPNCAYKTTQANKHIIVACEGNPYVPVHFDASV

In the case of bacitracin (peptide), the inhibition of LmPDI activity (scrambled RNase A reactivation test) [1] is reported as 2 mM, the inhibition of rLmPDI activity (scrambled RNase reactivation) (% inhibition at 0.1 mM) [1] is reported as 50 and the inhibition of rLmPDI activity (scrambled RNase reactivation) (% inhibition at 0.5 mM) [1] is reported as 70. For the same molecule, the inhibition of rLmPDI activity (scrambled RNase reactivation) (% inhibition at 2 mM) [1] was 100.

With zinc bacitracin (peptide) the inhibition of LmPDI activity (scrambled RNase A reactivation test) [1] was 2 mM, the inhibition of rLmPDI activity (scrambled RNase reactivation) (% inhibition at 0.1 mM) [1] was 50 and the inhibition of rLmPDI activity (scrambled RNase reactivation) (% inhibition at 0.5 mM) [1] was 70. The inhibition of rLmPDI activity (scrambled RNase reactivation) (% inhibition at 2 mM) [1] was 100.

B1: recombinant protein LmPDI-(His)6 produced in E. coli (protein)
chain: RESTAESLKLTKENFNETIAKSEIFLVKFYVDTCGYCQMLAPEWEKAANETIDNALMGEVDCHSQPELAANFSIRGYPTIILFRNGKEAEHYGGARTKDDIIKYIKANVGPAVTPASNAEEVTRAKEEHDVVCVGLTANNSTSLSTTLAEAAQSFRVSLKFFEAEPKLFPDEKPETIVVYRKGGEKEVYDGPMEVEKLTEFLQISRVAFGGEITPENYQYYSVIKRPVGWAMVKPNETASIELKESLTEVGKKMRSHMVVLWVNISKHPVWRDFGVPEDAKYPAFLAIHWGANYLHSTAEVVTRESLEKFILEFAAGRVEPTIKSLPVPEVETVDGKTTIVAKTMQKHLTSGKDMLILFFAPWCGHCKNFAPTFDKIAKEFDATDLIVAELDATANYVNSSTFTVTAFPTVFFVPNGGKPVVFEGERSFENVYEFVRKHVTTFKVSEKPANVTEEKKSEEENKSSKSNESNDSNESNVDKQDL
B1 was tested, and the “reactivation of scrambled RNase A (RNase A activity at 296 nm)” value [2] was “LmPDI is capable of restoring RNase A activity in a similar manner to that of bovine PDI”.

B2: bovine protein disulfide-isomerase (protein)
chain: APDEEDHVLVLHKGNFDEALAAHKYLLVEFYAPWCGHCKALAPEYAKAAGKLKAEGSEIRLAKVDATEESDLAQQYGVRGYPTIKFFKNGDTASPKEYTAGREADDIVNWLKKRTGPAASTLSDGAAAEALVESSEVAVIGFFKDMESDSAKQFFLAAEVIDDIPFGITSNSDVFSKYQLDKDGVVLFKKFDEGRNNFEGEVTKEKLLDFIKHNQLPLVIEFTEQTAPKIFGGEIKTHILLFLPKSVSDYEGKLSNFKKAAESFKGKILFIFIDSDHTDNQRILEFFGLKKEECPAVRLITLEEEMTKYKPESDELTAEKITEFCHRFLEGKIKPHLMSQELPDDWDKQPVKVLVGKNFEEVAFDEKKNVFVEFYAPWCGHCKQLAPIWDKLGETYKDHENIVIAKMDSTANEVEAVKVHSFPTLKFFPASADRTVIDYNGERTLDGFKKFLESGGQDGAGDDDDLEDLEEAEEPDLEEDDDQKAVKDEL
B2 was tested, and the “reactivation of scrambled RNase A (RNase A activity at 296 nm)” value [2] was “LmPDI is capable of restoring RNase A activity in a similar manner to that of bovine PDI, used as a control”.

From US20080199496A1
